The target in assay [1] is HLA-A*02 complexed with EPS8L2 339-347 (…) on cells. Put plainly: cell-based or functional assay.
Assay [2] concerns the target HLA-A*02 complexed with MAGE-A12 112-120 (…) on cells. As to the kind of experiment: cell-based or functional assay.

As to “A118T TCR (MAGE-A3 112-120 clinical TCR)”, in assay [1], the EC50 in primary human T cell cytotoxicity on peptide-loaded MCF7 cells, against the on-target EC50 was under 10 fold and the fold decrease in potency in Jurkat/T2 cell assays, against the on-target MAGE-A3 peptide turned out to be 500 fold. Besides, the potency in Jurkat/T2 cell assays, against the on-target MAGE-A3 peptide in assay [2] was 10 fold.

For the origin of these results see patent WO2021173674A1.
